Measured values taken from PMC12724136, “Design of antibody structure-guided epitope vaccines in silico to induce potent immune responses against emerging viruses” (Journal of Virology, 2025).

B1: unnamed (parent)
chain 1: MSHRLTCAYSGFSSDIHAVWVRQAAGKGLEWIAYISDSSAYIYYSQSVRGRFTISRDNSRKQVYLQMNSLTTEDSAVYYCTREGSGFAFDYWGKGTGGGGSGGGGSGGGGSVTISATGSSNIGADLSWYLQKTGETPKLLIYKASTRSSGTPPRFSGSTSGSQYTLTISGVQAEDAGDYYCLGDHGGGALTFGGGTK
chain 2: NIEWGDEVDLEM
B2: unnamed (parent)
chain 1: B1 chain 1
chain 2: GYQLASEIRGTIPLSS
B3: unnamed (parent)
chain 1: B1 chain 1
chain 2: DAIGMGSIGVMLAYMVRRKC

Variants of: B1
Assay: indirect ELISA
Details: with partner chain of the complex shown, scFv1 protein 50 µg/mL, value read at the highest peptide concentration, parent: 1.3, read off a plot
chain 2 NIEAGAAVALEM [chain 2 W4A D6A E7A D9A] was tested, and the response (Binding activity) was 0.53.

Same assay, conditions: with partner chain of the complex shown; peptides 50 µg/mL; scFv1 group of bars; parent: 1.3; read off a plot
In the case of chain 2 NIEAGAAVALEM [chain 2 W4A D6A E7A D9A], the response (Binding activity) is reported as 0.52.

Same assay, conditions: with partner chain of the complex shown; scFv1 50 µg/mL
chain 2 NIEAGAAVALEM [chain 2 W4A D6A E7A D9A] was tested, and the EC50 (lg EC50 (µg/mL)) was 4.17.

Same assay, conditions: with partner chain of the complex shown; scFv1 50 µg/mL; value read at the highest peptide concentration, log10 = 2 (µg/mL); parent: 0.77; read off a plot
chain 2 NIEAGAAVALEM [chain 2 W4A D6A E7A D9A] was tested, and the response (Binding activity) was 0.47.

Variants of: B2
Assay: indirect ELISA
Details: with partner chain of the complex shown, scFv1 protein 50 µg/mL, value read at the highest peptide concentration, parent: 1.6, read off a plot
In the case of chain 2 GAQLASEIAGTIPASS [chain 2 Y2A R9A L14A], the response (Binding activity) is reported as 0.63.

Same assay, conditions: with partner chain of the complex shown; peptides 50 µg/mL; scFv1 group of bars; parent: 1.6; read off a plot
chain 2 GAQLASEIAGTIPASS [chain 2 Y2A R9A L14A] showed a response (Binding activity) of 0.62.

Same assay, conditions: with partner chain of the complex shown; scFv1 50 µg/mL
chain 2 GAQLASEIAGTIPASS [chain 2 Y2A R9A L14A] showed an EC50 (lg EC50 (µg/mL)) of 3.57.

Same assay, conditions: with partner chain of the complex shown; scFv1 50 µg/mL; value read at the highest peptide concentration, log10 = 2 (µg/mL); parent: 1.9; read off a plot
chain 2 GAQLASEIAGTIPASS [chain 2 Y2A R9A L14A] showed a response (Binding activity) of 0.58.

Variants of: B3
Assay: indirect ELISA
Details: with partner chain of the complex shown, scFv1 protein 50 µg/mL, value read at the highest peptide concentration, parent: 0.98, read off a plot
For chain 2 DAIGMGAIGAMLAYMVARKC [chain 2 S7A V10A R17A], the response (Binding activity) was 0.46.

Same assay, conditions: with partner chain of the complex shown; peptides 50 µg/mL; scFv1 group of bars; parent: 0.98; read off a plot
Work on chain 2 DAIGMGAIGAMLAYMVARKC [chain 2 S7A V10A R17A] yielded a response (Binding activity) of 0.55.

Same assay, conditions: with partner chain of the complex shown; scFv1 50 µg/mL
chain 2 DAIGMGAIGAMLAYMVARKC [chain 2 S7A V10A R17A] showed an EC50 (lg EC50 (µg/mL)) of 3.96.

Same assay, conditions: with partner chain of the complex shown; scFv1 50 µg/mL; value read at the highest peptide concentration, log10 = 2 (µg/mL); parent: 0.95; read off a plot
chain 2 DAIGMGAIGAMLAYMVARKC [chain 2 S7A V10A R17A] showed a response (Binding activity) of 0.47.
